In PMC10746525 (2023):
Several values for one entry are separate records, joined by “and”; a condition that tells them apart may be missing. Equal entries are not always repeated. Where two headings read alike, the source gives them in different places.

B1: MIRO1_(177-591) (domain or fragment)
chain: EEKEMKPACIKALTRIFKISDQDNDGTLNDAELNFFQRICFNTPLAPQALEDVKNVVRKHISDGVADSGLTLKGFLFLHTLFIQRGRHETTWTVLRRFGYDDDLDLTPEYLFPLLKIPPDCTTELNHHAYLFLQSTFDKHDLDRDCALSPDELKDLFKVFPYIPWGPDVNNTVCTNERGWITYQGFLSQWTLTTYLDVQRCLEYLGYLGYSILTEQESQASAVTVTRDKKIDLQKKQTQRNVFRCNVIGVKNCGKSGVLQALLGRNLMRQKKIREDHKSYYAINTVYVYGQEKYLLLHDISESEFLTEAEIICDVVCLVYDVSNPKSFEYCARIFKQHFMDSRIPCLIVAAKSDLHEVKQEYSISPTDFCRKHKMPPPQAFTCNTADAPSKDIFVKLTTMAMYPHVTQADLKSST
B2: MBP-TRAK1_(342-431) (domain or fragment)
chain: EAQEELKNLRNKTMPNTTSRRYHSLGLFPMDSLAAEIEGTMRKELQLEEAESPDITHQKRVFETVRNINQVVKQRSLTPSPMNIPGSNQS

Columns and labels:
[1] = molecular target: T1, MBP-TRAK1_(342-431) ^400KR^401 to AA (human, UniProt Q9UPV9 342-431, ^400KR^401 to AA); experiment: ITC; 5 mM EGTA, 1 mM MgCl2, 0.1 uM GTP; experiment 1
T1 sequence: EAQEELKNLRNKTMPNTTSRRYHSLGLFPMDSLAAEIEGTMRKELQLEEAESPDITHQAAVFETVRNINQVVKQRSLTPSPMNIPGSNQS

[2] = molecular target: T1, MBP-TRAK1_(342-431) ^400KR^401 to AA; experiment: ITC; 5 mM EGTA, 1 mM MgCl2, 0.1 uM GTP; experiment 2
[3] = molecular target: T1, MBP-TRAK1_(342-431) ^400KR^401 to AA; experiment: ITC; 5 mM EGTA, 1 mM MgCl2, 0.1 uM GTP; reverse titration, experiment 2
[4] = molecular target: T1, MBP-TRAK1_(342-431) ^400KR^401 to AA; experiment: ITC; 5 mM EGTA, 1 mM MgCl2, 0.1 uM GTP; experiment 3
[5] = molecular target: T1, MBP-TRAK1_(342-431) ^400KR^401 to AA; experiment: ITC; 5 mM EGTA; MIRO1 in syringe
[6] = molecular target: T1, MBP-TRAK1_(342-431) ^400KR^401 to AA; experiment: ITC; 5 mM EGTA; TRAK1 in syringe
[7] = molecular target: T1, MBP-TRAK1_(342-431) ^400KR^401 to AA; experiment: ITC; 5 mM EGTA, 1 mM MgCl2, 0.1 uM GTP; reverse titration, experiment 3
[8] = molecular target: T1, MBP-TRAK1_(342-431) ^400KR^401 to AA; experiment: ITC; 5 mM EGTA, 1 mM MgCl2, 0.1 uM GTP; reverse titration, experiment 1
MBP-TRAK1_(342-431) = molecular target: B2; experiment: ITC
GCN4-TRAK1_(342-431) = molecular target: T2, GCN4-TRAK1_(342-431) ( | human, UniProt Q9UPV9 342-431); experiment: ITC
T2 chain: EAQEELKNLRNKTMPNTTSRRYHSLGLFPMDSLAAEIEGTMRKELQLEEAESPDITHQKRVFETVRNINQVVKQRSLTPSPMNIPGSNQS

MIRO1_(177-591) [9] = molecular target: B1; experiment: ITC
MIRO1_(177-591) [10] = molecular target: B1; experiment: ITC; remark: listed apart in the source
MIRO1_(177-591) E328A [11] = molecular target: T3, MIRO1_(177-591) E328A (human, UniProt Q8IXI2 177-591, E328A); experiment: ITC; 5 mM EGTA
MIRO1_(177-591) E208A [12] = molecular target: T4, MIRO1_(177-591) E208A (human, UniProt Q8IXI2 177-591, E208A); experiment: ITC; 5 mM EGTA
MIRO1_(177-591) E328A [13] = molecular target: T3, MIRO1_(177-591) E328A; experiment: ITC; 5 mM EGTA, 1 mM MgCl2, 0.1 uM GTP; experiment 1
MIRO1_(177-591) E208A [14] = molecular target: T4, MIRO1_(177-591) E208A; experiment: as above
MIRO1_(177-591) E328A [15] = molecular target: T3, MIRO1_(177-591) E328A; experiment: ITC; 5 mM EGTA, 1 mM MgCl2, 0.1 uM GTP; experiment 2
MIRO1_(177-591) E208A [16] = molecular target: T4, MIRO1_(177-591) E208A; experiment: as above
MIRO1_(177-591) E328A [17] = molecular target: T3, MIRO1_(177-591) E328A; experiment: ITC; 5 mM EGTA, 1 mM MgCl2, 0.1 uM GTP; experiment 3
MIRO1_(177-591) E208A [18] = molecular target: T4, MIRO1_(177-591) E208A; experiment: as above
MIRO1_(177-591) [19] = molecular target: B1; experiment: ITC; remark: listed apart in the source

Binder: B1
- Kd [1]: 4.39 µM
- Kd [2]: 2.98 µM
- Kd [3]: 11.3 µM
- Kd [4]: 3.98 µM
- Kd [5]: 7.52 µM
- Kd [6]: 9.62 µM
- Kd [7]: 8.55 µM
- Kd [8]: 7.52 µM
- Kd (MBP-TRAK1_(342-431)): 5.95 µM and 6.02 µM and 8 µM and 5.38 µM
- Kd (GCN4-TRAK1_(342-431)): 3.52 µM and 9.35 µM

Binder: PDITHQKRVFETVRNINQVVKQRSLTPSPMNIPGSNQSSAM [TRAK1_(394-434)]
- Kd (MIRO1_(177-591) [9]): 4.39 µM
- Kd (MIRO1_(177-591) [10]): 9.62 µM and 6.1 µM and 5.65 µM

Binder: B2
- Kd (MIRO1_(177-591) E328A [11]): 10.1 µM
- Kd (MIRO1_(177-591) E208A [12]): 9.09 µM
- Kd (MIRO1_(177-591) E328A [13]): 9.17 µM
- Kd (MIRO1_(177-591) E208A [14]): 8.85 µM
- Kd (MIRO1_(177-591) E328A [15]): 10.1 µM
- Kd (MIRO1_(177-591) E208A [16]): 9.09 µM
- Kd (MIRO1_(177-591) E328A [17]): 10.3 µM
- Kd (MIRO1_(177-591) E208A [18]): 3.86 µM
- Kd (MIRO1_(177-591) [19]): 10.6 µM
